This note sets out measurements from US6723699B1, “Treating disorders by application of insulin-like growth factors and analogs” (Cephalon, Inc., priority 1989, dated 2004).

One data set addresses T1, IGF-I receptor (Rattus norvegicus, UniProt P24062).
T1 construct: Brain tissue containing the cerebral cortex and cerebellum was dissected from adult Sprague-Dawley rats; from tissue; host or cells: adult Sprague-Dawley rat brain (cerebral cortex and cerebellum), homogenate pellet
In words: 125I-[Threonine59]IGF-I displacement (IGF-I receptor competition) assay, rat brain homogenate. Format: binding. The procedure:
Brain tissue containing the cerebral cortex and cerebellum was dissected from adult Sprague-Dawley rats (Hilltop Lab Animals, Inc. Scottsdale, Pa.) and homogenized at low power for 5 minutes in a Brinkmann Polytron homogenizer (Westbury, N.Y.) containing 50 volumes of ice-cold buffer consisting of 10 mM HEPES, 0.5% BSA, 0.0125% NEM, 0.025% bacitracin, and 100 KIU/ml aprotinin, pH 7.6 (Bohannon et al., Endocrinology 119:943-945 (1986). Following homogenization, the tissue was collected after centrifugation at 7800×g for 20 minutes and resuspended in 10 volumes of assay buffer. Tissue (50 μl), 100 μl ^125I-[Threonine^59]IGF-I (20 pM), and 50 μl of buffer or peptides of varying concentration were added to 96-well plates and incubated on ice for 3 hours. After the incubation period, the tissue was collected on Whatman GF/C filters that had been pre-soaked in 0.01% polyethylenimine and washed four times with ice-cold assay buffer using a Brandel cell harvester (Gaithersburg, Md.). The filters were removed and the bound ^125I-[Threonine 59]IGF-I was measured using a Beckman Model 5500B Gamma Counter.

Data set [1] has as its system 125I-[Threonine59]IGF-I binding to brain tissue sections. In words: 125I-[Threonine59]IGF-I binding displacement on rat brain tissue sections. The procedure: Brains were removed intact from adult Sprague-Dawley rats, frozen on powdered dry ice, and cut into 20 μm sections (at the level of the cerebellum and brain stem) which were
thaw-mounted onto gelatin-coated glass microscope slides (Herkenham and Pert, J. Neurosci. 2:1129-1149 (1982)). Using a modification of the method of Bohannon et al. (1986), the tissue sections were covered with 250 μl of HEPES assay buffer (see Example 1) containing 0.01 nM ^125I-[Threonine^59]IGF-I alone or in combination with unlabeled IGF-I, IGF-II, or synthetic peptide fragments thereof. The sections were incubated at 4° C. for 24 hours and then rinsed in three 1-minute changes (200 ml each) of ice-cold HEPES assay buffer. The tissue sections were then wiped off the slides with filter paper, and the tissue-bound radioactivity was measured in a Beckman Model 5500B Gamma Counter.

Data set [2] concerns brain ornithine decarboxylase. In words: Induction of brain ornithine decarboxylase after intracerebral injection, 4 day old rats. The settings on record: 6 hours. Format: in vivo, rat. Here is the method:
The in vivo activity of IGF-I, IGF-II or synthetic peptide derivatives of these molecules was tested using a biochemical marker for CNS neurotrophic activity, the induction of brain ornithine decarboxylase. The induction (i.e. increased activity) of ornithine decarboxylase has been reported to be a general marker for the actions of a variety of trophic factors. (Schwartz et al., Dev. Brain Res. 1:403-413 (1981); Kanje et al., Brain Res. 381:24-28 (1986); Russell et al., Life Sci. 19:1297-1306 (1976); MacDonnell et al. Proc. Natl. Acad. Sci. USA 74, 4681-4684 (1977); […] et al. Proc. Natl. Acad. Sci. USA 82, 4365-4368 (1985)). Sprague-Dawley rats, 4 days old, were injected intracerebrally (in the area of the lateral ventricle) with 5 μl of 0.1 M phosphate-buffered saline (PBS) containing IGF-I, IGF-II or a synthetic peptide derivative (1.25-2.5 μg dose, with 6 animals per treatment group). After 6 hours, the brains were removed, and ornithine decarboxylase was assayed essentially as described by Lewis et al., Proc. Natl. Acad. Sci. USA 75:1021-1023 (1978).

For the next data set, the system named is septal cultures. In words: Number of AChE positive cells in rat septal cultures. Format: cell-based. The conditions noted are these: 100 nM IGF-I; 4×10^5 cells/cm^2, medium with 10% bovine calf serum. Here is the method: Dissociated cell cultures of the septal region of day 17 embryonic rats were prepared by standard techniques known to those skilled in the art, using enzymatic (Dispase, Collaborative Research) dissociation of tissue. Cells were seeded (plated) at 6×10^5 cells/cm^2 in poly-1-ornithine-laminin coated plastic tissue culture wells, and cultured in serum-free N2 medium (Bottenstein et al., 1978) for 5 days without feeding. Control (uninduced) cultures received no added growth factors; induced cultures received the concentrations of IGF-I and NGF indicated in FIGS. 9 and 10 at the time of plating. NGF is commercially available. ChAT was assayed by the method described in McManaman, et al. Dev. Biol. 125:311-320 (1988). AChE staining was performed according to the method of Hartikka and Hefti, J. Neuroscience 8:2967-2985 (1988).
We have shown that under specific culture conditions (4×10^5 cells/cm^2 in the presence of medium containing 10% bovine calf serum), IGF-I increased the number of AChE positive cells by 3-4 fold over control, growth factor-free cultures, FIG. 12.

The subject of data set [3] is 14.5 day embryonic rat spinal cord neurons. In words: Choline acetyltransferase activity in 14.5 day embryonic rat spinal cord neurons, serum-free. The settings on record: serum-free and insulin-free N2 medium, 48 hr. Format: cell-based. The procedure:
The activity of IGF-I, IGF-II and IGF-III was assayed on dissociated cultures of 14.5 day embryonic rat spinal cord neurons. The spinal cords were removed from embryos and dissociated in 0.05% trypsin in Dulbecco's Phosphate Buffered Saline (DPBS). Dissociated cells were seeded onto poly-1-ornithine substrates in 96 well microtiter plates at 2×10^5 cells/well in 200 μl of serum-free and insulin-free N2 medium (Bottenstein and Sato, 1979 supra) containing 0.05% bovine serum albumin. After a 48 hr incubation at 37° C. in a humidified atmosphere of 5% CO2, 95% air, cultures were assayed for choline acetyltransferase activity according to a modification (McMananman et al., Dev. Bio., 25:311-320 (1988)) of the technique described by Fonnum (Fonnum, J. Neurochem. 24:405-409 (1975)).

T1 sequence (P24062 31-737 limits assumed): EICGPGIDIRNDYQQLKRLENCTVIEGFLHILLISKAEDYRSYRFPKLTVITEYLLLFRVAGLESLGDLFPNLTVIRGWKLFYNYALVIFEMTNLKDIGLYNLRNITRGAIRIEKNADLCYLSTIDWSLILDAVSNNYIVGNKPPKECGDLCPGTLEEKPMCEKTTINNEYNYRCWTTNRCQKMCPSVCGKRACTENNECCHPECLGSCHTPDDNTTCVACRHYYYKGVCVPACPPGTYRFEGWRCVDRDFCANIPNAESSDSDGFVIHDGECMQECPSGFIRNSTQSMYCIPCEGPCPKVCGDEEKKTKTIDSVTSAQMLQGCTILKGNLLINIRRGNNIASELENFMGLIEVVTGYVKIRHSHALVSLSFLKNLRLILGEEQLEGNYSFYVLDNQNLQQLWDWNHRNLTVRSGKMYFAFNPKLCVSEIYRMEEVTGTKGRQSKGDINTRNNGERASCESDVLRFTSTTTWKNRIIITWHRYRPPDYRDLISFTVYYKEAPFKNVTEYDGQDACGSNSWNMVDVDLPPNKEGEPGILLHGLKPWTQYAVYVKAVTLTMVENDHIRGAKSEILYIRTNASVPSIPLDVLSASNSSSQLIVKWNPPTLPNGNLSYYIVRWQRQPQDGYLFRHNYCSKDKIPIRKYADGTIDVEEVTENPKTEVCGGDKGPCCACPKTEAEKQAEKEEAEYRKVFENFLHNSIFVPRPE
T1 sequence (P24062 742-1370 partner limits assumed): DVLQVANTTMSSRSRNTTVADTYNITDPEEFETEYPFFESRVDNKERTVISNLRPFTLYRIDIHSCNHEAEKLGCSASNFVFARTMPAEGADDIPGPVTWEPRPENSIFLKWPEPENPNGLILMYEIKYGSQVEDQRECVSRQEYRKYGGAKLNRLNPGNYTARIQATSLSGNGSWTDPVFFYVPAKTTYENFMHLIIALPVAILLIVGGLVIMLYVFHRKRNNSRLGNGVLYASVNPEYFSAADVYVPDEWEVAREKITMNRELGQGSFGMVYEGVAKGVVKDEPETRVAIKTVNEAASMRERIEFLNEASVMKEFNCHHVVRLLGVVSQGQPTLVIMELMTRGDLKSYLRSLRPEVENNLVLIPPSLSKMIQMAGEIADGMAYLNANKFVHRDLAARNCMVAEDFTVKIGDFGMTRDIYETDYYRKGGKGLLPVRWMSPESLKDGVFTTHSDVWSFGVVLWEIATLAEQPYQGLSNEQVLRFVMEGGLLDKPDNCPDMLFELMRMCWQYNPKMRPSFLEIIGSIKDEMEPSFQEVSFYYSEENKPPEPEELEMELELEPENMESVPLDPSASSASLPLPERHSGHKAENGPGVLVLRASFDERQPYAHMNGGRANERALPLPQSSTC

Regarding “GPETLCGAELVDALQFVCGDRGFYFNKPTGYGSSS-RRAPQTGIVDECCFRSCDLRRLEMYCAPLKPAKSA [IGF-I]”, the “PERCENT MAX. BOUND” value came to 100% with IGF-I receptor (peptide 10 pM, 20 pM 125I-[Thr59]IGF-I); 9.6% with IGF-I receptor (peptide 40 nM); 91% in data set [1] (peptide 4 pM, 0.01 nM 125I-[Thr59]IGF-I); 30% in data set [1] (peptide 400 pM). Further, in the data set with IGF-I receptor (rat brain homogenate), the “displacement of 125I-[Threonine59]IGF-I (in words)” value was “potent displacers”. Moreover, the “displacement of 125I-[Threonine59]IGF-I binding (in words)” value in data set [1] (rat brain sections) is “potently displaced”. Further, the “brain ornithine decarboxylase activity (in words)” value in data set [2] is recorded as “dose-dependent increase in brain ornithine decarboxylase activity”. In addition, the “increase in number of AChE positive cells over control” value in the data set with septal cultures is 3-4 fold. Moreover, in data set [3], the “choline acetyltransferase activity (in words)” value is reported as “substantial, dose-dependent increase in choline acetyltransferase activity”.
